Source: patent US7045552B2, “Pharmaceutical composition for improved administration of HIV gp41-derived peptides, and its use in therapy” (Trimeris, Inc., priority 2002, dated 2006)

Assays:
HIV = conditions: cited from earlier work
HIV-1 gp41 (HIV-1) [1] = molecular target: HIV-1 gp41 (HIV-1)
HIV-1 gp41 (HIV-1) [2] = molecular target: HIV-1 gp41 (HIV-1); remark: listed apart in the source

NNLLRAIEAQQHLLQLTVWGIKQLQARILAVERYLKDQ [DP107]
50% effective concentration (EC50), blocked infection of T cells (HIV): 1000 ng/mL

T20 (SEQ ID NO:4) (peptide)
IC50, antiviral potency by the methods of Example 2; PEG 1500 formulation (HIV-1 gp41 (HIV-1) [1]): 6.6 ng/mL

T1249 (SEQ ID NO:5) (peptide)
IC50 (ng/ml), Magi-CCR5 infectivity assay; mannitol formulation (HIV-1 gp41 (HIV-1) [2]): 3.6 ng/mL
